These results are taken from patent US20050282740A1.

Where two headings read alike, the source gives them in different places.

Assay [1] has as its target WFYpSPFLE. Put plainly: fluorescence anisotropy; high affinity site.
The target of assay [2] is WFYpSPFLE. Put plainly: fluorescence anisotropy; low affinity site. (Fluorescence polarisation rises when a labelled molecule tumbles more slowly, as on binding a larger partner.)
The target of assay [3] is tau peptide (pT-231), SEQ ID NO: 20. Description: ELISA on tau peptides. Background: In an ELISA, binding on a coated surface is turned into a signal by an enzyme label.
The target is the same in assay [4]. Put plainly: ELISA on tau peptides. This is another data set of the same source.
The target is the same in assay [5]. Put plainly: ELISA on tau peptide.
The target in assay [6] is WFYpSPFLE. Description: fluorescence anisotropy with fluorescein labeled Pintide; high affinity site.
The target in assay [7] is Amyloid Precursor Protein Peptide … (pT-668). Put plainly: ELISA on amyloid precursor protein peptide; binder not labelled in the row, taken as Pin1.
The target of assay [8] is WFYpSPFLE. Put plainly: fluorescence anisotropy; Table 2 prints 1.0 for this pair.
The target in assay [9] is WFYpSPFLE. Put plainly: fluorescence anisotropy, GST-WW-domain on fluorescein-labelled peptide.
A further assay concerns the target EQPLpTPVTDL. The description is as above.
The target of assay [10] is proteins from 32P or 35S-labeled HeLa cell lysates. Put plainly: GST pull-down from labeled HeLa lysates pretreated with CIP, PP1 and PP2A.
In the next assay the target is GST-Pin1 (human) (UniProt Q13526). Put plainly: competition with MPM-2 antigens for GST-Pin1, pull-down and MPM-2 immunoblot.
Assay [11] concerns the target GST-WW-domain of Pin1 (human) (UniProt Q13526). Put plainly: competition with MPM-2 antigens for GST-WW-domain of Pin1, pull-down and MPM-2 immunoblot.
Assay [12] deals with tau peptide … (pT-231), SEQ ID NO: 29. Description: ELISA on tau peptide.

The Kd is a measure of binding affinity in units of concentration. High values mean lower affinity, low ones higher affinity. Regarding “GST-Pin1^S16A (from UniProt Q13526 1-163) (enzyme)”, the dissociation constant (Kd) with WFYpSPFLE [1] is 1200 nM; with WFYpSPFLE [2], 10500 nM.
Consider “Pin1 (from UniProt Q13526 1-163) (enzyme)”, for which the Kd in assay [3] came out at 25 nM; in assay [4] it was 40 nM; in the assay with WFYpSPFLE [1] it was 1200 nM; with WFYpSPFLE [2] it was 11000 nM; with WFYpSPFLE [6] it was 1200 nM. For the same substance, the results for the Binding (OD @ 405 nm) in assay [5] and in [7] were 1.46 OD 405 nm and 1.81 OD 405 nm, respectively.
Turning to “Pin1 WW-domain (from UniProt Q13526 1-54)”, the Kd in the assay with WFYpSPFLE [1] came to 1000 nM; in the assay with WFYpSPFLE [8] it was 1200 nM.
Turning to “GST-WW-domain of Pin1 (from UniProt Q13526 1-54)”, the results for the Kd in the assay with WFYpSPFLE [9] and in the assay with EQPLpTPVTDL were 1000 nM and 2200 nM, respectively.
Consider “GST-Nedd4 WW-domain-2 (from UniProt P46935 405-438)”, for which the results for the Kd with WFYpSPFLE [9] and in the assay with EQPLpTPVTDL were 10000 nM and 20000 nM, respectively. Also, the fold reduction of binding after pretreatment of lysates with Ser phosphatases in [10] is 10 fold.
In the case of “Pin1 PPIase domain (from UniProt Q13526 47-163) (enzyme)”, in the assay with WFYpSPFLE [2], the Kd was found to be 15000 nM.
As to Pintide (WFYpSPRLKK) (peptide), the peptide concentration at which significant competition was detected (in the assay with GST-Pin1 (human); in [11]) was 50 µM each time. The peptide concentration of complete competition (with GST-Pin1 (human); in [11]) was 250 to 500 µM throughout.
Consider “GST-Pin1^S18E (from UniProt Q13526 1-163) (enzyme)”, for which the figures for the Kd with WFYpSPFLE [1] and in the assay with WFYpSPFLE [2] were 1000 nM and 12000 nM, respectively.
With “GST-Pin1^S16E (from UniProt Q13526 1-163) (enzyme)”, the Kd in the assay with WFYpSPFLE [2] worked out at 10500 nM.
Regarding “Pin1^Y23F (from UniProt Q13526 1-163) (enzyme)”, the Kd with WFYpSPFLE [6] was 5000 nM.
Take “GST-Pin1^R14A (from UniProt Q13526 1-163) (enzyme)”: the figures for the Kd with WFYpSPFLE [1] and in the assay with WFYpSPFLE [2] were 2000 nM and 13500 nM, respectively.
In turn, “Pin1^S16A (from UniProt Q13526 1-163) (enzyme)” showed a Kd in the assay with WFYpSPFLE [6] of 1200 nM.
Substance “Pin1^R14A (from UniProt Q13526 1-163) (enzyme)” displayed a Binding (OD @ 405 nm) in assay [12] of 1.3 OD 405 nm. This substance also had a Kd in the assay with WFYpSPFLE [6] of 2000 nM.
“GST-Nedd4 WW-domain-1 (from UniProt P46935 249-282)”: the fold reduction of binding after pretreatment of lysates with Ser phosphatases in [10] stood at 10 fold.
Regarding “GST-Pin1 (from UniProt Q13526 1-163) (enzyme)”, the dissociation constant Kd turned out to be 1200 nM in the assay with WFYpSPFLE [1] and 13000 nM with WFYpSPFLE [2].
With “GST-Pin1^W34A (from UniProt Q13526 1-163) (enzyme)”, in the assay with WFYpSPFLE [2], the Kd came out at 14000 nM.
The same measure, in the same setting: the result for “GST-Pin1^Y23A (from UniProt P08515 1-218; Q13526 1-163) (enzyme)” reads 13500 nM.
